The target of experiment [1] is SARS-CoV-2 RBD (residues 319–541), Wuhan-Hu-1 (SARS-CoV-2) (UniProt P0DTC2). In words: BLI. For orientation: In BLI a coated tip is dipped into the sample, and binding shifts an interference pattern.
Another experiment has as its target ACE2-COMP (human | rat) (UniProt Q9BYF1). In words: negative stain electron microscopy.

For orientation: Kd means a measure of binding affinity in units of concentration. High values mean a looser complex, low ones a tighter complex. What is called stoichiometry N is the number of molecules, sites or subunits per partner or assembly. “ACE2-COMP (from UniProt Q9BYF1 19-615; P35444 29-73)”: in experiment [1], the Kd is less than 0.025 nM and the percent of bound ACE2 still attached after more than 8 h of dissociation is 90%. Also, in the experiment with ACE2-COMP (human | rat), the stoichiometry N turned out to be 5.
